According to patent publication US20220298217A1 (FLAGSHIP PIONEERING INNOVATIONS VI, published 2022):

Assays:
Assay in all cases: cell-based or functional assay
[1] = biological target: Flag-PTHR1-YFP (parathyroid hormone receptor 1) expressed in transfected HEK293T cells (human) (UniProt Q03431)
Flag-PTHR1-YFP = biological target: T1, Flag-PTHR1-YFP (UniProt Q03431 27-593)
T1 sequence (looked up): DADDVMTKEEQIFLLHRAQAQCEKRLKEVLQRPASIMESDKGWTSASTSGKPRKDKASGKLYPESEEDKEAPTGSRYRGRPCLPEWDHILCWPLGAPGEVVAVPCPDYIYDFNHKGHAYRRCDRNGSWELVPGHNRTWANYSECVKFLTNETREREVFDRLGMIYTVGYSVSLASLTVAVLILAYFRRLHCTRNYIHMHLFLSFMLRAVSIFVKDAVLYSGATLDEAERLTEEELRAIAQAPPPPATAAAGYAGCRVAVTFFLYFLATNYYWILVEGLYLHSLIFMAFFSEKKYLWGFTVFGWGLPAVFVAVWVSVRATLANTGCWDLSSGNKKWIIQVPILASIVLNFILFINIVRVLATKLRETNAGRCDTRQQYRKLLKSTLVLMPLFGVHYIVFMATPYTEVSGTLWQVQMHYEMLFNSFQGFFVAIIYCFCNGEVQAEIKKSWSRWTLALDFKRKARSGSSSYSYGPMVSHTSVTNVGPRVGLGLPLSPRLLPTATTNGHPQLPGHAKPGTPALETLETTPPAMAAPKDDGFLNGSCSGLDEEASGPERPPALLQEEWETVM

[2] = biological target: T2, PTHR1 on CHO-K1/Ga15/PTHR1 cells (UniProt Q03431 27-593, limits assumed)
T2 sequence (looked up): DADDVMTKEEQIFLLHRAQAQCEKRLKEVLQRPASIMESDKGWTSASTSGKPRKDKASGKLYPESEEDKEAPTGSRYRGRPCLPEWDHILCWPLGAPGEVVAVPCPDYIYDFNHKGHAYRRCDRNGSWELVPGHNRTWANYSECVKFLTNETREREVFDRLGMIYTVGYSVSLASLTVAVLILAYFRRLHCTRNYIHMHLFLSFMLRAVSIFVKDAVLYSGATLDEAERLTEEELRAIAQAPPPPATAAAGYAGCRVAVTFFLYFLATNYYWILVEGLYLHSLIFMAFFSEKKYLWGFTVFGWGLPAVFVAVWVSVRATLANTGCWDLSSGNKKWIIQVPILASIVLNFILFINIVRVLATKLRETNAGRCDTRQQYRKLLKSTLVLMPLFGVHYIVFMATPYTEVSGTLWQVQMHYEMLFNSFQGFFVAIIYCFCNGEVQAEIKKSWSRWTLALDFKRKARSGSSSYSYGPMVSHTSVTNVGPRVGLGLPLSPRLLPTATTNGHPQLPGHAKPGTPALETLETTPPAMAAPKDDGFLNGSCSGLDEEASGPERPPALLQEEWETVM

Row | Molecule | arrestin 1, plate 25: -log10EC50 [1] | arrestin 1, plate 25: Emax [1] | arrestin 2, plate 26: -log10EC50 [1] | arrestin 2, plate 26: Emax [1] | arrestin 2 recruitment (BRET): -log10EC50 (Flag-PTHR1-YFP) | arrestin 2 recruitment (BRET): Emax (Flag-PTHR1-YFP) | cAMP accumulation (HTRF): -log10EC50 [2] | cAMP accumulation (HTRF): Emax [2] [%]
1 | PTH 7-36 antago (peptide) | -6.98 -log10EC50 | 7.68 | -7.33 -log10EC50 | 8.04 |  |  |  | 
2 | AVAEIQLMHQRAKWGLEIELLKLLLSLLKEYI [R2-45] |  |  |  |  | -5.76 -log10EC50 (as headed) | 16.1 | -11.1 -log10EC50 (as headed) | 729
3 | AVAEIQLMHQRAKWELQEIGIAITLRLLARYI [R2-43] |  |  |  |  | -8.03 -log10EC50 (as headed) | 7.45 | -10.5 -log10EC50 (as headed) | 309
4 | GVAMLQIMHDLAKIKQELELKDSMKKILEDVL [R2-50] |  |  |  |  | -10.5 -log10EC50 (as headed) | 6.45 | -6.24 -log10EC50 (as headed) | 99.8
5 | AVAEIQLMHQRAKWKILEELLKILIDLLKQYI [R2-48] |  |  |  |  | -15.2 -log10EC50 (as headed) | 6.42 | -7.19 -log10EC50 (as headed) | 98.8
6 | AVAEIQLMHQRAKWAIQEIGIKITRELLERYL [R2-42] |  |  |  |  | -8.37 -log10EC50 (as headed) | 7.53 | -6.54 -log10EC50 (as headed) | 97.6
7 | AVAEIQLMHQRAKWSLREELEKLLKELLKEYI [R2-44] |  |  |  |  | -8.46 -log10EC50 (as headed) | 7.63 | -10.4 -log10EC50 (as headed) | 106
8 | AVAEIQLMHQRAKWDVLIELAKLLAELLRRYH [R2-47] |  |  |  |  | -5.77 -log10EC50 (as headed) | 15.2 | -9.23 -log10EC50 (as headed) | 102
